Source: patent publication US8299213B2, “Synthetic or natural peptides binding protein phosphatase 2A, identification method and uses” (Universite Pierre et Marie Curie (Paris 6), priority 2001, dated 2012)
“Also recorded” adds a separate entry of the source.

How the values were obtained:
[1] = tested on: Hela cells; test: Cell viability test (MTT); type: cell-based, human; details: 72 h, increasing peptide concentrations (FIG. 4)
Procedure: Hela cells (10^4 for 100 μl) were seeded into 96-well plates (flat bases) with complete DMEM medium containing 2.5% penicillin/ampicillin and 10% foetal calf serum. After incubating overnight at 37° C. in a CO2 oven (5%), the cells were cultivated in the presence of different peptide concentrations. After incubating for 72 h, the medium containing the peptides was aspirated and the MTT at 0.5 mg/ml (diluted in DMEM alone) was added in an amount of 100 μl per well. Incubation was carried out in the dark at 37° C. for 30 minutes then the MTT was aspirated off and 50 μl of DMSO was added to all wells. It was necessary to wait ten minutes for complete lysis of the cells and to agitate the lysate well to homogenize dissolution of the reaction product in the wells. The plates were then read at 570 nm with a 690 nm reference filter.

[2] = tested on: Hela cells; test: Cell penetration test (biotinylated peptide-avidine peroxidase complexes); type: cell-based, human; details: biotinylated peptides, 4 hours incubation (FIG. 3)
Procedure: We analyzed the Hela line, which is derived from a human cervical carcinoma.
0.1 M Tris buffer, pH 8 containing 0.5% NP40.
25.7 ml of 0.2 M dibasic sodium phosphate+24.3 ml of 0.1 M citric acid+50 ml distilled water; adjust to pH 5.0.
4 moles of peptides were incubated with 1 mole of avidine-peroxidase. 20 minutes at ambient temperature.
Hela cells (10^4 in […]) were seeded into 96-well plates (flat bases) with complete DMEM medium in the presence of 2.5% penicillin/ampicillin and 10% foetal calf serum. After incubating overnight at 37° C. in a CO2 oven (5%), different dilutions of complexes (biotinylated-avidine peroxidase peptides) were added. After incubating for 4 hours the supernatant was aspirated and the cells were washed 3 times with PBS, trypsinated and taken up for counting in PBS. After counting, the cells were taken up in 300 μl of lysis buffer.
50 μl of OPD buffer was incubated in a 96 well ELISA plate with 50 μl of lysis buffer or 50 μl of cell lysate (in general, different successive dilutions were carried out (to ½)). In order to reveal, 50 μl of OPD solution was added (in the dark). The reaction (about 10 min) was stopped with 100 μl of 1N HCl.
The peroxidase activity was determined by reading at 490 nm in the ELISA reader (reference filter at 620 nm) and the quantity of peroxidase in the lysates was calculated from the calibration curve then extrapolated to the same number of cells (10^3 or 10^4): Peptide molecules=(6*10^23/MW of peptide)*ng of PO*10^−9. A.4. Cell Viability Test

[3] = biological target: T1, subunit A of PP2A (Homo sapiens, UniProt P30153); test: SPOT peptide membrane screened with structural subunit A of PP2A; type: binding; details: peptides on cellulose membrane, 4 μg/ml purified protein, antibody against protein A (FIGS. 1A, 2A)
T1 construct: made in house; host or cells: E. coli
Description: A recombinant structural subunit of PP2A was expressed in E. coli and purified using the protocol described by Cohen et al (Cohen P, Alemany S, Hemmings B A, Resink T J, Stralfors P, Tung H Y. Protein phosphatase-1 and protein phosphatase 2A from rabbit skeletal muscle. Methods Enzymol 1988 159, 390-408), or that described by Bosch et al (Bosch M, Cayla X, Van Hoof C, Hemmings B A, Ozon R, Merlevede W, Goris J. the PR55 and PR65 subunits of protein phosphatase 2A from Xenopus laevis. Molecular cloning and developmental regulation of expression. Eur J Biochem 1995, 230, 1037-45).
(§1) Binding peptides derived from CK2α proteins (encoded by T parva protozoa) or Vpr protein (encoded by the HIV-1 virus) with PP2A were identified using the “spot peptides” technique described above (Frank and Overwing, 1996, Meth Mol Biol 66, 149-169).
(§2) The method consisted of synthesizing dodecapeptides, in situ on a cellulose membrane, at defined positions wherein the series of the sequence covered the whole sequence of the protein of interest (Vpr or CK2α). The peptides of two consecutive spots on the membrane overlap with an overlapped by two amino acids.
(§3) Sixty-eight (68) dodecapeptides covering the whole sequence of the Vpr protein of HIV-1 and two hundred and five (205) dodecapeptides covering the sequence for the CK2α protein of Theileria were synthesized and covalently bound to cellulose membranes.
(§4) Each prepared membrane was first saturated for 1 hour at ambient temperature with TBS containing 5% skimmed Régilait (milk) and 3% BSA then incubated overnight in the same buffer in the presence of 4 μg/ml of purified protein (subunit A of PP2A or holoenzyme PP2A1).
(§5) The membranes were washed 5 times for 15 minutes with a conventional TBST buffer (TBS+TWEEN) used for incubation then incubated a further 1 hour at ambient temperature with a second antibody (coupled with peroxidase).

[4] = biological target: T2, holoenzyme PP2A1 (Sus scrofa, UniProt P54612); test: SPOT peptide membrane screened with holoenzyme PP2A1; type: binding, pig; details: for binding to the trimeric holoenzyme PP2A1: peptides on cellulose membrane, 4 μg/ml purified protein, antibodies against proteins A, B and C (FIGS. 1B, 2B)
T2 construct: Trimeric PP2A1 protein was purified to homogeneity from pig brain; from tissue; host or cells: pig brain
Description: Trimeric PP2A1 protein was purified to homogeneity from pig brain.
as §1, §2, §3, §4, §5

T1 sequence (P30153 whole entry): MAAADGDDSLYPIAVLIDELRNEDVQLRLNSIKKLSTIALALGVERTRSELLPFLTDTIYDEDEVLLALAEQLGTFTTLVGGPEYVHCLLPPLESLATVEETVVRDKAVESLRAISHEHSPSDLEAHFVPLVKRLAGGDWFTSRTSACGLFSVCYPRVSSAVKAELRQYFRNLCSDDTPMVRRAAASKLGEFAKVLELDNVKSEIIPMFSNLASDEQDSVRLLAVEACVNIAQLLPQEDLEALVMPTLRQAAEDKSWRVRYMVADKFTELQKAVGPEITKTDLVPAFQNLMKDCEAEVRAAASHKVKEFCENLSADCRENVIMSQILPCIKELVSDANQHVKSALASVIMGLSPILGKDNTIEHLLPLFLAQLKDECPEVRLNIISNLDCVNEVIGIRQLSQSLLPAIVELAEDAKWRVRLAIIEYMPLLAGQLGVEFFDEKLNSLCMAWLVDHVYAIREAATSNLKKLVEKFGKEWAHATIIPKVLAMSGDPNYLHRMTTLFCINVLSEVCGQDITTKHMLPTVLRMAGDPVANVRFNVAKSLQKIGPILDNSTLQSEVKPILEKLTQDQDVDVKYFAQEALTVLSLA
T2 sequence (P54612 whole entry): as the sequence (P30153 whole entry) above, with S324T counted along it
T2 sequence (P67776 whole entry partner): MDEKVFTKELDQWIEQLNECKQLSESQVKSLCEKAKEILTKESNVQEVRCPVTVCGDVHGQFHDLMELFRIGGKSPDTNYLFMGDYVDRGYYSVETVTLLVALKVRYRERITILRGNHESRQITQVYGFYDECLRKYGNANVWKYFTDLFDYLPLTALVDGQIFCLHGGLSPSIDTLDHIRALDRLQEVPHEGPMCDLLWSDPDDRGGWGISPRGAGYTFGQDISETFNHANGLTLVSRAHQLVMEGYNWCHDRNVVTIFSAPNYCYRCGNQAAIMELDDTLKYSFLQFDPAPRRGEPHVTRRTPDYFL

Substance | intracellular penetration into Hela cells [2] | binding to the structural subunit A of PP2A [3] | also measured
(AHSRIG)3 (AHSRIGAHSRIGAHSRIG; listed as Theileria parva) [FD12] | – | – | effect on viability of Hela cells [1]: affects the viability of the Hela cell
(RHSRIG)3 (RHSRIGRHSRIGRHSRIG; listed as Theileria parva) [FD11] | possibility of penetrating into the Hela cell | – | –
(RQKRLI)3 (RQKRLIRQKRLIRQKRLI; listed as Theileria parva) [FD7] | possibility of penetrating into the Hela cell | – | –
ALIRILQQLLFI (Human immunodeficiency virus) [SEQ ID No: 7] | – | binding the subunit A of PP2A | –
IGIIQQRRTRNG (Human immunodeficiency virus) [SEQ ID No: 12] | – | binding the subunit A of PP2A | –
ILQQLLFIHFRI (Human immunodeficiency virus) [SEQ ID No: 9] | – | binding the subunit A of PP2A | –
IRILQQLLFIHF (Human immunodeficiency virus) [SEQ ID No: 8] | – | binding the subunit A of PP2A | –
KILRLIDWGLAEFYHP (listed as Theileria parva) [T parva CK2α site 3] | – | containing a binding site | binding to the trimeric holoenzyme PP2A1 [4]: containing a binding site
LIDWGLAEFYHP (listed as Theileria parva) [peptide 131] | – | – | binding PP2A ([4]; FIG. 2, subunit A or holoenzyme not given): capable of binding PP2A
RHSRIGIIQQRR (Human immunodeficiency virus) [SEQ ID No: 10] | – | binding the subunit A of PP2A | –
RHSRIGIIQQRRTRNG [FD14] | possibility of penetrating into the Hela cell; also recorded: penetrating peptides | containing a binding site | binding to the trimeric holoenzyme PP2A1 [4]: containing a binding site; effect on viability of Hela cells [1]: clearly affects the viability of Hela cells
RHSRIGVTRQRRARNG [FD13] | possibility of penetrating into the Hela cell | – | effect on viability of Hela cells [1]: absence of the biological effect
RKIGRGKFSEVFEG (listed as Theileria parva) [T parva CK2α site 1] | – | containing a binding site | –
RRRRRRRSRGRRRRTY (listed as Theileria parva) [FD8, peptide derived from protamine] | possibility of penetrating into the Hela cell; also recorded: penetrating peptides | – | effect on viability of Hela cells [1]: affects the viability of Hela cells
SRIGIIQQRRTR (Human immunodeficiency virus) [SEQ ID No: 11] | – | binding the subunit A of PP2A | –
TVTKDKCVIKILKPVKKKKIKREIKILQNL (listed as Theileria parva) [T parva CK2α site 2] | – | containing a binding site | –
VEALIRILQQLL [SEQ ID No: 6] | – | binding the subunit A of PP2A | –
VEALIRILQQLLFIHFRI [HIV-1 Vpr site 2] | – | containing a binding site | –
VKKKKIKREIKI (listed as Theileria parva) [FD6] | possibility of penetrating into the Hela cell | – | effect on viability of Hela cells [1]: does not affect the viability
